Experiment [1] addresses T1, IGF1R (UniProt P08069 31-1367, limits assumed).
T1 construct: whole, on cells; also called insulin-like growth factor receptor
The experiment can be described thus: flow cytometry on cells carrying the target, 2 ug/mL; parent antibody.

In experiment [2] the target is T2, RON (UniProt Q04912 25-1400, limits assumed).
T2 construct: whole, on cells; also called macrophage stimulating protein receptor tyrosine kinase; MSP receptor
As to the kind of experiment: flow cytometry on cells carrying the target, 2 ug/mL; N-terminal VD. (In flow cytometry, cells or beads pass a laser one at a time.)

In experiment [3] the target is T3, DLL4 (human, UniProt Q9NR61 27-685).
T3 construct: whole, on cells; also called human DLL4
The experiment can be described thus: flow cytometry on cells carrying the target, 2 ug/mL; parent antibody.

The target in experiment [4] is T3, DLL4. As to the kind of experiment: flow cytometry on 293G-human DLL4 cells; reference antibody.
For experiment [5], the target named is T4, DLL4 ECD/His tag (R&D 1506-D4-050) (UniProt Q9NR61 27-529).
T4 construct: extracellular domain; Bought antigen coated on the ELISA plate; not shown: His tag
The experiment can be described thus: direct bind ELISA, DLL4 on plate; reference antibody.

Experiment [6] has as its target T5, CD-19 (UniProt P15391 20-291, limits assumed).
T5 construct: construct unknown
T5 sequence (looked up): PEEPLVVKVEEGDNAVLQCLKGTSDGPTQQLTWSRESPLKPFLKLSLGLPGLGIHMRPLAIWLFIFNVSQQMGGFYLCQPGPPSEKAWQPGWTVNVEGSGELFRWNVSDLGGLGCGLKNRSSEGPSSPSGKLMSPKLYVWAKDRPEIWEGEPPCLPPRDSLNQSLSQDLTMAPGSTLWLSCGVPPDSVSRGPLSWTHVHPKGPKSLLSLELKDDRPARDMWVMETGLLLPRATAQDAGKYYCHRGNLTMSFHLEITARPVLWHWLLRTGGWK
As to the kind of experiment: Direct Bind ELISA, antigen on plate; C-terminal VD. A general note: An ELISA detects its analyte on a solid surface through an enzyme-linked reagent.

In experiment [7] the target is T6, VEGF (VEGF 1-165 aa, R&D Systems 293-VE-010) (UniProt P15692 27-191).
T6 construct: bought reagent; also called vascular endothelial growth factor
T6 sequence (P15692 other isoform, or with tags, fused parts or gaps limits assumed): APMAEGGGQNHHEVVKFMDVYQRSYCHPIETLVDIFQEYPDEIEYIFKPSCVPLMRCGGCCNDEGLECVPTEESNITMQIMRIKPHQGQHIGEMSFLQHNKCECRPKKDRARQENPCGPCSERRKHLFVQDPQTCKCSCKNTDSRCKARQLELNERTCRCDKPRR
As to the kind of experiment: Direct bind ELISA, VEGF coated on plate; reference antibody printed beside DVD510.

Experiment [8] concerns the target T6, VEGF (VEGF 1-165 aa, R&D Systems …). The experiment can be described thus: Direct bind ELISA, VEGF coated on plate; reference antibody printed beside DVD492.
Experiment [9] has the same target. The experiment can be described thus: Direct bind ELISA, VEGF coated on plate; reference antibody printed beside DVD497.
Experiment [10] shares this target. As to the kind of experiment: Direct bind ELISA, VEGF coated on plate; reference antibody printed beside DVD498.
Experiment [11] shares this target. As to the kind of experiment: Direct bind ELISA, VEGF coated on plate; reference antibody printed beside DVD504.
Experiment [12] has the same target. As to the kind of experiment: Direct bind ELISA, VEGF coated on plate; reference antibody printed beside DVD491.
The target is the same in experiment [13]. The experiment can be described thus: Direct bind ELISA, VEGF coated on plate; reference antibody printed beside DVD503.
The target is the same in experiment [14]. The experiment can be described thus: Direct bind ELISA, VEGF coated on plate; reference antibody printed beside DVD509.
Experiment [15] concerns the target T7, VEGF (UniProt P15692 27-191, limits assumed).
T7 construct: bought antigen coated on the ELISA plate
As to the kind of experiment: direct bind ELISA, reference antibody.

Experiment [16] concerns the target T2, RON. The experiment can be described thus: flow cytometry on cells carrying the target, 2 ug/mL; parent antibody.
Experiment [17] concerns the target T8, RON (MSP Receptor ECD-His tag, R&D Systems 1947-MS-050) (UniProt Q04912 25-957, limits assumed).
T8 construct: extracellular domain; not shown: His tag
As to the kind of experiment: Direct bind ELISA on RON; reference antibody.

Experiment [18] deals with T9, NRP1 (UniProt O14786 22-923, limits assumed).
T9 construct: whole, on cells; also called neuropilin 1
The experiment can be described thus: flow cytometry on cells carrying the target, 2 ug/mL; parent antibody.

Experiment [19] deals with T10, CD-80 (UniProt P33681 35-288, limits assumed).
T10 construct: whole, on cells; also called B7-1
T10 sequence (looked up): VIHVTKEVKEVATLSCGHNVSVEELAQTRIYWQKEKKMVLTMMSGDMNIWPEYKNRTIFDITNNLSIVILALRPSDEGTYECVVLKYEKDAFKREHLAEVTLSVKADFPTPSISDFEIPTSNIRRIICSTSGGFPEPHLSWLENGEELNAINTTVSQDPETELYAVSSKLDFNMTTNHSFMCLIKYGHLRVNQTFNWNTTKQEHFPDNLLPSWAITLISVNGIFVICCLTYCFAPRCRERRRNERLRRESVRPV
The experiment can be described thus: flow cytometry on cells carrying the target, 2 ug/mL; N-terminal VD.

Experimental findings from patent US20100260668A1 (published 2010) are described below.

Values joined by “and” are separate entries in the source; they are usually repeats but may differ in a detail not shown here. Equal values may be shown once.

T7 sequence (P15692 other isoform, or with tags, fused parts or gaps limits assumed): as the sequence (P15692 other isoform, or with tags, fused parts or gaps limits assumed) above

B1: AB011 (antibody, human IgG1, kappa, V domains shown)
VH: EVQLLESGGGLVQPGGSLRLSCTASGFTFSSYAMNWVRQAPGKGLEWVSAISGSGGTTFYADSVKGRFTISRDNSRTTLYLQMNSLRAEDTAVYYCAKDLGWSDSYYYYYGMDVWGQGTTVTVSS
VL: DIQMTQFPSSLSASVGDRVTITCRASQGIRNDLGWYQQKPGKAPKRLIYAASRLHRGVPSRFSGSGSGTEFTLTISSLQPEDFATYYCLQHNSYPCSFGQGTKLEIKR
notes: Parent antibody
Consider B1, for which the “FACS Geometric Mean” value in experiment [1] worked out at 1680.

B2: DVD033 (bispecific antibody, human IgG1, kappa)
heavy: not shown
light: DVVMTQSPLSLPVTPGEPASISCRSSQSLLHSNGFNYVDWYLQKPGQSPHLLIYFGSYRASGVPDRFSGSGSGTDFTLKISRVEAEDVGVYYCMQALQTPPWTFGQGTKVEIRRTVAAPDIQMTQSPSSVSASVGDRVTITCRASQGISSWLAWYQQKPGKAPNLLIYEASSLQSGVPSRFGGSGSGTDFTLTISSLQPEDFATYYCQQANGFPWTFGQGTKVEIKRTVAAPSVFIFPPSDEQLKSGTASVVCLLNNFYPREAKVQWKVDNALQSGNSQESVTEQDSKDSTYSLSSTLTLSKADYEKHKVYACEVTHQGLSSPVTKSFNRGEC
notes: DVD-Ig; outer AB005 (RON), inner AB012 (HGF); also called RON and HGF DVD-Ig
On to B2, for which the “FACS Geometric Mean N-terminal” value in experiment [2] stood at 6.46.

B3: AB015 (antibody, human IgG1, kappa)
heavy: not shown
light: DIQMTQSPSSLSASVGDRVTITCRASQDVSTAVAWYQQKPGKAPKLLIYSASFLYSGVPSRFSGSGSGTDFTLTISSLQPEDFATTYYCQQSYTGTVTFGQGTKVEIKRTVAAPSVFIFPPSDEQLKSGTASVVCLLNNFYPREAKVQWKVDNALQSGNSQESVTEQDSKDSTYSLSSTLTLSKADYEKHKVYACEVTHQGLSSPVTKSFNRGEC
notes: Parent antibody; also called AB015
The EC50 is the concentration giving half of the maximal effect. A high value points to a need for much substance. B3: in [3], the “FACS Geometric Mean” value worked out at 308. The molecule further showed an EC50 in experiment [4] of 0.5 nM.

B4: AB072 (antibody, human IgG1, kappa, V domains shown)
VH: EVQLQQSGPELVKPGASVKMSCKASGYTFTSYVINWVKQKPGQGLEWIGLINPYNDGTKYNEKFKVKATLTSDKSSSTAYMELSSLTSEDSAVYYCASYYYGSRYYFDYWGQGTTLTVSS
VL: DIQMTQSSSYLSVSLGGRVTITCKASDHINNWLAWYQQKPGNAPRLLISGATSLETGVPSRFSGSGSGKDYTLSITSLQTEDVATYYCQQYWSIPLTFGAGTKLELKR
notes: also called AB072-DLL-4
Consider B4, for which the concentration for a half-maximal effect (EC50) in experiment [5] is 1.29 nM and 0.7 nM and 1.99 nM and 1.85 nM.

B5: DVD001 (CD-20 and CD-19 DVD-Ig) (bispecific antibody, IgG1)
VH: QVQLQQPGAELVKPGASVKMSCKASGYTFTSYNMHWVKQTPGRGLEWIGAIYPGNGDTSYNQKFKGKATLTADKSSSTAYMQLSSLTSEDSAVYYCARSTYYGGDWYFNVWGAGTTVTVSAASTKGPQVQLQQSGAELVRPGSSVKISCKASGYAFSSYWMNWVKQRPGQGLEWIGQIWPGDGDTNYNGKFKGKATLTADESSSTAYMQLSSLASEDSAVYFCARRETTTVGRYYYAMDYWGQGTSVTVSS
VL: QIVLSQSPAILSPSPGEKVTMTCRASSSVSYIHWFQQKPGSSPKPWIYATSNLASGVPVRFSGSGSGTSYSLTISRVEAEDAATYYCQQWTSNPPTFGGGTKLEIKRTVAAPDILLTQTPASLAVSLGQRATISCKASQSVDYDGDSYLNWYQQIPGQPPKLLIYDASNLVSGIPPRFSGSGSGTDFTLNIHPVEKVDAATYHCQQSTEDPWTFGGGTKLEIKR
notes: Outer AB001, inner AB006; HC vector V1 (wild-type hIgG1 constant), LC vector V2 (kappa constant); also called DVD001H; DVD001L
In turn, B5 had an EC50 in experiment [6] of 12.9 nM.

B6: AB071 (antibody, human IgG1, kappa, L234A L235A, V domains shown)
VH: EVQLVESGGGLVQPGGSLRLSCAASGFTINASWIHWVRQAPGKGLEWVGAIYPYSGYTNYADSVKGRFTISADTSKNTAYLQMNSLRAEDTAVYYCARWGHSTSPWAMDYWGQGTLVTVSS
VL: DIQMTQSPSSLSASVGDRVTITCRASQVIRRSLAWYQQKPGKAPKLLIYAASNLASGVPSRFSGSGSGTDFTLTISSLQPEDFATYYCQQSNTSPLTFGQGTKVEIKR
notes: Parent anti-VEGF antibody
Consider B6, for which the concentration giving a half-maximal response (EC50) in experiment [7] is 37.8 nM; in experiment [8], 45.7 nM; in experiment [9] it was 45.7 nM; in experiment [10] it was 45.7 nM; in experiment [11] it was 37.8 nM; in experiment [12], 45.7 nM. Moreover, the half-maximal effective concentration (EC50) in experiment [13] and in experiment [14] was 37.8 nM in each case.

B7: AB071 (antibody, human IgG1, kappa, L234A L235A, V domains shown)
VH: EVQLVESGGGLVQPGGSLRLSCAASGFTINASWIHWVRQAPGKGLEWVGAIYPYSGYTNYADSVKGRFTISADTSKNTAYLQMNSLRAEDTAVYYCARWGHSTSPWAMDYWGQGTLVTVSS
VL: DIQMTQSPSSLSASVGDRVTITCRASQVIRRSLAWYQQKPGKAPKLLIYAASNLASGVPSRFSGSGSGTDFTLTISSLQPEDFATYYCQQSNTSPLTFGQGTKVEIKR
On to B7, for which the EC50 in experiment [15] is 35.4 nM and 26.6 nM.

B8: AB005 (antibody, human IgG1, kappa, V domains shown)
VH: EVQLVQSGGGLVKPGGSLRLSCAASGFTFSSYAMHWVRQAPGKGLEWVAVISYDGSNKYYADSVKGRFTISRDNSKNTLYLQMNSLRAEDTAVYYCARFSGWPNNYYYYGMDVWGQGTTVTVSS
VL: DVVMTQSPLSLPVTPGEPASISCRSSQSLLHSNGFNYVDWYLQKPGQSPHLLIYFGSYRASGVPDRFSGSGSGTDFTLKISRVEAEDVGVYYCMQALQTPPWTFGQGTKVEIRR
notes: Parent antibody
On to B8, for which the “FACS Geometric Mean” value in experiment [16] came to 54.5.

B9: AB005 (anti-RON (seq. 1) parent antibody) (antibody, human IgG1, V domains shown)
VH: EVQLVQSGGGLVKPGGSLRLSCAASGFTFSSYAMHWVRQAPGKGLEWVAVISYDGSNKYYADSVKGRFTISRDNSKNTLYLQMNSLRAEDTAVYYCARFSGWPNNYYYYGMDVWGQGTTVTVSS
VL: DVVMTQSPLSLPVTPGEPASISCRSSQSLLHSNGFNYVDWYLQKPGQSPHLLIYFGSYRASGVPDRFSGSGSGTDFTLKISRVEAEDVGVYYCMQALQTPPWTFGQGTKVEIRR
notes: also called AB005VH; AB005VL
As to B9, in experiment [17], the EC50 is 0.26 nM and 0.69 nM.

B10: AB016 (antibody, human IgG1, kappa, V domains shown)
VH: EVQLVESGGGLVQPGGSLRLSCAASGFSFSSEPISWVRQAPGKGLEWVSSITGKNGYTYYADSVKGRFTISADTSKNTAYLQMNSLRAEDTAVYYCARWGKKVYGMDVWGQGTLVTVSS
VL: DIQMTQSPSSLSASVGDRVTITCRASQSISSYLAWYQQKPGKAPKLLIYGASSRASGVPSRFSGSGSGTDFTLTISSLQPEDFATYYCQQYMSVPITFGQGTKVEIKR
notes: Parent antibody
As for B10, the “FACS Geometric Mean” value in experiment [18] was determined as 338.

B11: DVD006 (bispecific antibody, human IgG1, kappa)
heavy: not shown
light: ESALTQPPSVSGAPGQKVTISCTGSTSNIGGYDLHWYQQLPGTAPKLLIYDINKRPSGISDRFSGSKSGTAASLAITGLQTEDEADYYCQSYDSSLNAQVFGGGTRLTVLGQPKAAPQIVLSQSPAILSPSPGEKVTMTCRASSSVSYIHWFQQKPGSSPKPWIYATSNLASGVPVRFSGSGSGTSYSLTISRVEAEDAATYYCQQWTSNPPTFGGGTKLEIKRTVAAPSVFIFPPSDEQLKSGTASVVCLLNNFYPREAKVQWKVDNALQSGNSQESVTEQDSKDSTYSLSSTLTLSKADYEKHKVYACEVTHQGLSSPVTKSFNRGEC
notes: DVD-Ig; outer AB007 (CD-80), inner AB001 (CD-20); also called CD-80 and CD-20 DVD-Ig
Take B11: the “FACS Geometric Mean N-terminal” value in experiment [19] is 70.7.
